In doi:10.1101/2020.05.14.095364 (bioRxiv, 2020):

B1: GFP-tagged hZO-1 (residues 1619-1748), isolated ZU5 fragment (domain or fragment, human, UniProt Q07157 1619-1748, looked up)
chain: SAVEEDEDEDGHTVVATARGIFNSNGGVLSSIETGVSIIIPQGAIPEGVEQEIYFKVCRDNSILPPLDKEKGETLLSPLVMCGPHGLKFLKPVELRLPHCDPKTWQNKCLPGDPNYLVGANCVSVLIDHF
B2: GST-CGN(1-70) (domain or fragment, canine, UniProt A7YH32 1-70, looked up)
chain: MEQASTMAEPRGPVDHGVQIRFITEPVGNAEMDTLRRGGRRPAKDARANTYGVAVRVQGIAGQPFVVLNS

Tests used:
GST-CGN(1-70) = biological target: B2; experiment: pull-down
[1] = biological target: B1; experiment: quantitative GST-pulldown supernatant depletion assay

Binder | fold binding against the other ZO-1 fragments (GST-CGN(1-70)) | Kd [1]
B1 | > 4 fold | –
B2 | – | 40.4 nM
